Measurements reported in patent US20140369964A1 (GLYTECH, published 2014).

T1: IFN-α/β receptor 2 (UniProt P48551 27-243, limits assumed)
T1 sequence (looked up): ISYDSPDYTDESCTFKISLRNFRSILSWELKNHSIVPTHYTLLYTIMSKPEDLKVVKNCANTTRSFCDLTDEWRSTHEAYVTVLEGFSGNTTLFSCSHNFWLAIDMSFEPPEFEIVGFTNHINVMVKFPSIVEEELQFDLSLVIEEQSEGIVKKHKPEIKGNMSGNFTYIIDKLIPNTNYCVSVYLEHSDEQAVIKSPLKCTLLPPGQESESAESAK

B1: non-heated disialo sugar chain attached polypeptide (10) (ligand)
chain: MSYNLLGFLQRSSNFQCQKLLWQLNGRLEYCLKDRMNFDIPEEIKQLQQFQKEDAALTIYEMLQNIFAIFRQDSSSTGWNETIVENLLANVYHQINHLKTVLEEKLEKEDFTRGKLMSSLHLKRYYGRILHYLKAKEYSHCAWTIVRVEILRNFYFINRLTGYLRN
modifications: disialo sugar chain on Asn at position 80; folded, with a mass loss of 2 Da after folding (disulfide bond, Cys 31-Cys 141 in interferon β)
notes: also called glycosylated polypeptide (10); disialo IFN-β
B2: heat-treated disialo sugar chain attached polypeptide (ligand)
chain: B1 chain
modifications: disialo sugar chain on Asn at position 80; folded as in step 3-6
notes: also called heat-treated chemically synthesized IFN-β

Biological target: T1, IFN-α/β receptor 2
Test: SPR (ProteOn XPR36), receptor amine-coupled to GLM chip, IFN-β as analyte at 0.31-25 nM
Method: The binding affinity of the non-heated or heat-treated chemically synthesized IFN-β against IFN-α/β receptor 2 was measured with ProteOn XPR36 (Bio-rad) employing SPR (Surface Plasmon Resonance technology).
Specifically, 10 μg/mL of IFN-α/β receptor 2 (10 mM acetic acid buffer, pH 4.5) was fixed to a GLM chip (Bio-rad) according to instructions by employing an amine coupling kit (Bio-rad) and flowing 0.005% Tween 20/PBS at a flow rate of 30 μL/min. The non-heated disialo sugar chain attached polypeptide (10) prepared in Example 3, or the heat-treated disialo sugar chain attached polypeptide obtained by subjecting the disialo sugar chain attached polypeptide heat-treated in the above 9-1. to the de-Acm step, the benzyl group deprotection step, and the folding step described in the above 3-4.-3-6. were adjusted to 0.31-25 nM with 0.1% BSA and 2 mM EDTA/PBS, and added to the chip at a flow rate 50 of μL/min. The analysis with glycosylated polypeptide (10) was carried out at each of five concentrations of 0.31 nM, 0.93 nM, 2.8 nM, 8.3 nM, and 25 nM. The binding constant (ka), the dissociation constant (kd), and the binding dissociation constant (Kd) were analyzed with ProteOn Manager software. The results thereof are shown in FIG. 38, FIG. 39, and Table 1.

Binder	Kd [nM]	koff [s⁻¹]	kon [M⁻¹ s⁻¹]
B1	0.49	0.0027	5.5e+06
B2	0.53	0.0023	4.3e+06
